Test results taken from paper PMC12080921.

target: biotinylated bovine FI; test: biolayer interferometry; conditions: n = 3; parent: 27 ± 3 nM

Going from PmSLP-1^15-318 D121A to PmSLP-1^15-318 D124R, the Kd falls from 0.117 µM to 0.053 µM (2.2-fold).

Going from PmSLP-1^15-318 D210A to PmSLP-1^15-318 E132R, the Kd falls from 0.272 µM to 0.028 µM (9.7-fold). The second binds more tightly here.

PmSLP-1^15-318 I133D and PmSLP-1^15-318 K236E are within 1.5-fold of each other in Kd: 0.043 µM for the first, 0.032 µM for the second.

PmSLP-1^15-318 L127D and PmSLP-1^15-318 R167A are within 1.5-fold of each other in Kd: 0.085 µM for the first, 0.107 µM for the second.

target: biotinylated bovine FI (bovine); test: BLI; Octet RED96; biotinylated bovine FI (150 nM) on streptavidin biosensors; PmSLP-1 as analyte at 0, 5, 16, 50, 160, 500, 1600 nM; 30 °C; PBS pH 7.4, 0.01% Tween 20; steady-state analysis, one-site model; conditions: not given

With PmSLP-1^15-318 (domain or fragment) the Kd was 0.027 µM.
